Measurements from the DeepSol protein solubility set.

Test: soluble on expression in E. coli; label from the status in PepcDB or PDB records
For “SLLIVYNEYLIHIYHSFQWAELQCETDSCIKMLLVADPQILGNTFDTKLYWPLANFDSDRHLKRTYKSVVQHAAPDVICFLGDLMDEGSVANDDQFAAYFTRFVNIFSQPTANTIMFYIPGDNDIGGEGLETIKSDRVLRFKQYFNEQDELTIDPMLRILNVNRISMTLPMNSAPSTEEPQPYTVLLSHMPILRWSDPFTYKVIDDFQPNVIFSAHEHKSRHVKTHRNQLTQGAPFEPLNTERSNRHEVVEFDLNYLKDTRELLEFIVPTCSYRMGEMKIGYGYAMFDGDKLRYTVLWTSQRFYQ”, the “soluble on expression in E. coli” value was “soluble”.
In the case of “SLNEQELQDLQKMVGVAVNALGDIKAKDISVLETQDKTSLFARMIIASGDSTRQVKALANNVAVDLKEAGFEILSTEGDSGEWTLVDAGDLVVHVMLPAVRDFYDIDTLWGGEKPSFHAGMQKPWHAAD”, the “soluble on expression in E. coli” value is reported as “soluble”.
For “SLNKNARLQQENHFLSLQRSRYDNLCAAIEETRQVRHDIRHHYLQLAALAEKGDMEKIKEYLSSADRKMPSFDFHFCDNQAVDSILGYYSNHAKQEGIPFLAQIDIPDNFLGDEMDICLVLSNLLENAIEASLKTEDSRRKIVIKMYLHHTHILLIQAENNFDAKILEKNGVFQSTKHSGNGIGIQSIRHITERNGGASNFTYKDGEFTAKIMLRI”, the “soluble on expression in E. coli” value was “not soluble”.
In the case of “SLNPLDSFKSQVEANVTGLGADKDIQALSRIWSRETNRNGYTYNYSWLGRPIIQYPQDIMAMQELIWSIQPDLIIETGIAHGGSLIFSASMLELNAISGGPQDAEVLGIDIDIRQHNREAIEAHPMVKRISMIQGSSIAPEIIEQVKAKAEGKQKILVCLDSNHTHDHVLAELEAYAPLTSVGSYCVVFDTVVEDLPDEMFGDRPWGVGNNPKTAVWEYLKTHPEFEIDKSIQHKLLITVAPDGYLKRLG”, the “soluble on expression in E. coli” value is reported as “soluble”.
With “SLNRESERDVIKVGIIGDFTGICSELERGKVAAYKLAADEINRMGGINEKKVELLFRDDRSLSELTREAVKELTEEERVDVLMGSTLSPSREIMQHYADQTKTLYLDTQQTEGGVSSHYTFCLSAMPEQQMTQMLAYLLQKYGRKCYVVAADYNYGILSAEWVKYLVHQLGGEIVGVEYLDDRITDFNPLIDRILQLEADILFSICVFPNHDAFYLQWHQRGLNHIPNASTMVAAEAYQNVRFAPPVLENMYVMASFIEELNTPAAQRFVKKFRAAYDHREVPYMSMDTETVYTAMYVYKRAVELAGTTDTEEVITALESGAVYVDGPGGRVTVRGEDHHTSRSLSCFRINNQHRAEELFCTNPIHSDYIESMIEQTMGVKGGIKAMGANAPSTQYNMLLNKFRWHPSEG” the “soluble on expression in E. coli” value was “soluble”.
In the case of “SLPPLNSLISQFEGRVYDQIINFNWHSKPENLKVIIIDIDEKSLEQEGRWPWPRSKIAELLNKLQENGVVTVGFDIVMSEAETNYALGLIEKLSQFSGKMTTDQKQLIATLNSVANQVDNDQTLVNALGKNNAILGFFFHNSEGIRKGSLPPPLRDTDSNPLLASKLSVYQFTNFNGNLAAFTAAATSGGFVTNLPDKDGVVRHALLLANYKNNLYPSLSLAIAMNYLLTDKVNLKKYNNELTGIELDGLQIPTNRKGQILIPFWGGPGTLNYYSATDILNNQFNPDELAGSIALVGSSITLLSDLHHTPVAQLFPGVEIVGNIVKGLVEQKIPREFDWESLQG”, the “soluble on expression in E. coli” value is reported as “not soluble”.
In the case of “SLPRDENMPLIQVIDDDVSMLILLKDALESKGWMVMANTEPEKAVDQFFDMNPDCLIIDVNLPGKSGFHVLEDIQKHTNKKFIPKLMISIMNDRETRIKAYRLGADDFISKPIDLEEFLIKVERHLDRKQIFDQSVLIDELTQVYNRRFLKDSLKRYLKELERSNQYFSIAVLDLDHFKQVNDMYGHPAGDRILSEFAQYLKDHVRIGDIVFRYGGEEFILLLPRTNDHDSKEVVSRLLSGFSSRTFIEGGAELKMTFSAGVYMVHDPSATVAEAIKTADQALYKAKRNGRARVESANKLIGGHSRKVLNVSVIDDDAIIRTMLMKILQSMEFEHTSLDIQVYEDGQKFLQSGRMEQKGEHFLILDGIMPVMDGTEVLQKVKENRNASRVHVLMLTGRKTEYDIARALKLGADDYVTKPFSITELQARIHRLIQRMSEG”, the “soluble on expression in E. coli” value is reported as “soluble”.
In the case of “SLQDFWCSTLVKGVIYGSYSVSEMFPKNFTNCTWTLENPDPTKYSIYLKFSKKDLSCSNFSLLAYQFDHFSHEKIKDLLRKNHSIMQLCNSKNAFVFLQYDKNFIQIRRVFPTNFPGLQKKGEEDQKSFFEFLVLNKVSPSQFGCHVLCTWLESCLKSENGRTESCGIMYTKCTCPQHLGEWGIDDQSLILLNNVVLPLNEQTEGCLTQELQTTQVCNLTREAKRPPKEEFGMMGDHTIKSQRPRSVHEKRVPQEQADAAKFMAQTG”, the “soluble on expression in E. coli” value is reported as “soluble”.
With “SLRKLRFTRSPYTSARLGQPVDASLLLCNGGRRRFRGQVRDAWPPSARAQPHTHDVDVAAGQRQQVHTALRPVRRGDQRAAMVTARSIGPLGLAGRQSSQSVPGLVRVLPPFLSRKHLPSRLAKLREIDGLLPTLIRGQGTEFDSLREYVVGDDVRSIDWRASARRADVMVRTWRPERDRRVVIVLDTGRMAAGRVGVDPTAADPAGWPRLDWSMDAALLLAALASRAGDHVDFLAHDRISRAGVFGASRSELLAQLVDAMAPLRPALIESDWHAMIATILRRTRRRSLVVLLTDLNATALDEGLLPVLPQLSARHHVLVAAVADPRVDQLAAGRSDAAAVYDAAAAERARNDRRAIASQLRRGGVDVIDAPPAEIAPGLADRYLAMKATGRL” the “soluble on expression in E. coli” value was “not soluble”.
For “SLRVYIYEYAVATGDEEFLAEGRAMLESLLRAFAKSGYETLTVAHPSVGVRWADEVLRDETQALECADLTLVIAPESDGLLESKVREYSRETEVIGPTPRAIRVAADKRKTEDALRDARSFQLPTREADVMVSKPADGAGSEGVRIGRGELSRELIPGSHHSLLCVSDGETVDVLGINDQFVAFAGRELVYLGGRTPSDHRELTRIARDIAEEVVERIPGLVGLFGVDLVMKGGEPYLIEVNPRPTTPTVAAALEHPEAVVRSLLEGPTGKVLRYRREYVYVKRGAEALVPEKFEVVEDFHGLRVYRG”, the “soluble on expression in E. coli” value was “soluble”.
With “SLSFLYFNDNSKIANAPLKNRFEKTQKESLIIKNNNEDKKAKSKPKFYLIIDDVGYDEFMLEQFIKLNLKITYAIIPFLPKSMSLYKKLKNANKTVIIHFPMQSKHRNSIEKFHINIKDKKEEIHKKIEKAFKKYPDAKIMNNHMGSLITSNKDLMKIILEKLKEIDRYFFDSVTIAGSVPEIIGKEIGVKVEKRDVFLDSKDTEESVTKELEKAKNIARKNGMVKVIGHIWSKNTLKVLKKEGPDLNQEFEFDNLLNLYEETIR” the “soluble on expression in E. coli” value was “soluble”.
With “SLSGNYLPRNTLVESLGHAMLKLSGWKIEGQLPALDKFVVIGAHHTSNWDFVAFLAAKFVLRLNARWFGKHTLFNGPLGGLMRRWGGIPIQRHLKLNTVDQAIQAFREHREFMLIIAPEGTRKKVDRWRMGFYHIARGAGVPVVPAALDYENRRIVIGEPFWPTGNEDADLCSLIGFYRPFIPKKPHYAFLGDEG” the “soluble on expression in E. coli” value was “not soluble”.
In the case of “SLSLESLEWMAFDSFLLWRSEESIDARILLVEINQNDNYSLTSTISNSSFIGVIEKLQVYQPKVIGLEVDQHLLINSQEDKLAKIFQKYKNLIANEKILPLQVHSYLDLPNEQITFADQILDNDGKSRRSLLAINTSNGYKLSLAMELARIYLAEKNISLENSRLGKTKLPRFLPNSGGYIRADASGFQVLINFRSGNQRFRTLSGEDIKNGKFNPEWIRDRIVIIGITNTHNQGFIPTSAITSVKSASTQVNKLEIQAHAISQIISAVLDGRPLINTWNDG”, the “soluble on expression in E. coli” value is reported as “soluble”.
With “SLSWLTTHFVVTNRRVMFRHGVLTRSGIDIPLARINSVEFRDRIFERIFRTGTLIIESASQDPLEFYNIPRLREVHALLYHEVFDTLGSDESPS” the “soluble on expression in E. coli” value was “soluble”.
For “SLTHYKYYEANVETNQVLVFLHGFLSDSRTYHNHIEKFTDNYHVITIDLPGHGEDQSSMDETWNFDYITTLLDRILDKYKDKSITLFGYSMGGRVALYYAINGHIPISNLILESTSPGIKEEANQLERRLVDDARAKVLDIAGIELFVNDWEKLPLFQSQLELPVEIQHQIRQQRLSQSPHKMAKALRDYGTGQMPNLWPRLKEIKVPTLILAGEYDEKFVQIAKKMANLIPNSKCKLISATGHTIHVEDSDEFDTMILGFLKEEQND”, the “soluble on expression in E. coli” value was “soluble”.
With “SLTSEMIENIQSVKAYCWEEAMEKSGGGSGGGSGGGSGGGIENSHVKKDDIWPSGGQMTVKDLTAKYTEGGNAILENISFSISPGQRVGLLGRTGSGKSTLLSAFLRLLNTEGEIQIDGVSWDSITLEQWRKAFGVIPQKVFIFSGTFRKNLDPYEQWSDQEIWKVADEVGLRSVIEQFPGKLDFVLVDGGCVLSHGHKQLMCLARSVLSKAKILLLDEPSAHLDPVTYQIIRRTLKQAFADCTVILCEARIEAMLECDQFLVIEENKVRQYDSIQKLLNERSDFRQAISPSD” the “soluble on expression in E. coli” value was “soluble”.
For “SLVMKASVDDDDSGWELSMPEKMEKSNTNWVDITQDFEEACRELKLGELLHDKLFGLFEAMSAIEMMDPKMDAGMIGNQVNRKVLNFEQAIKDGTIKIKDLTLPELIGIMDTCFCCLITWLEGHSLAQTVFTCLYIHNPDFIEDPAMKAFALGILKICDIAREKVNKAAVFEEEDFQSMTYGFKMANSVTDLRVTGMLKDVEDDMQRRVKSTRSRQGEERDPEVELEHQQCLAVFSRVKFTRVLLTVLIAFTKKETSAVAEAQKLMVQAADLLSAIHNSLHHGIQAQNDTT”, the “soluble on expression in E. coli” value was “soluble”.
In the case of “SMDPPPSETHKLVVVGGGGVGKSALTIQFIQSYFVSDYDPTIEDSYTKICSVDGIPARLDILDTAGQEEFGAMREQYMRAGHGFLLVFAINDRQSFNEVGKLFTQILRVKDRDDFPVVLVGNKADLESQRQVPRSEASAFGASHHVAYFEASAKLRLNVDEAFEQLVRAVRKYQEQELPPS”, the “soluble on expression in E. coli” value is reported as “soluble”.
In the case of “SMGGFMEDLRKCKIIFIIGGPGSGKGTQCEKLVEKYGFTHLSTGELLREELASESERSKLIRDIMERGDLVPSGIVLELLKEAMVASLGDTRGFLIDGYPREVKQGEEFGRRIGDPQLVICMDCSADTMTNRLLQMSRSSLPVDDTTKTIAKRLEAYYRASIPVIAYYETKTQLHKINAEGTPEDVFLQLCTAIDSIFL”, the “soluble on expression in E. coli” value is reported as “soluble”.
For “SMKDHTEGLSDKEQRFVDKLYTGLIQGQRACLAEAITLVESTHSRKKELAQVLLQKVLLYHREQEQSNKGKPLAFRVGLSGPPGAGKSTFIEYFGKMLTERGHKLSVLAVDPSSCTSGGSLLGDKTRMTELSRDMNAYIRPSPTRGTLGGVTRTTNEAILLCEGAGYDIILIETVGVGQSEFAVADMVDMFVLLLPPAGGDELQGIKRGIIEMADLVAVTKSDGDLIVPARRIQAEYVSALKLLRKRSQVWKPKVIRISARSGEGISEMWDKMKDFQDLMLASGELTAKRRKQQKVWMWNLIQESVLEHFRTHPTVREQIPLLEQKVLIGALSPGLAADFLLKAFKSRD”, the “soluble on expression in E. coli” value was “soluble”.
With “SMSNANPFFSQSLAERDASVRGAILKELERQQSQVELIASENIVSRAVLDAQGSVLTNKYAEGYPGKRYYGGCEFADEVEALAIERVKRLFNAGHANVQPHSGAQANGAVMLALAKPGDTVLGMSLDAGGHLTHGAKPALSGKWFNALQYGVSRDTMLIDYDQVEALAQQHKPSLIIAGFSAYPRKLDFARFRAIADSVGAKLMVDMAHIAGVIAAGRHANPVEHAHVVTSTTHKTLRGPRGGFVLTNDEEIAKKINSAVFPGLQGGPLMHVIAGKAVAFGEALTDDFKTYIDRVLANAQALGDVLKAGGVDLVTGGTDNHLLLVDLRPKGLKGAQVEQALERAGITCNKNGIPFDPEKPTITSGIRLGTPAGTTRGFGAAEFREVGRLILEVFEALRTNPEGDHATEQRVRREIFALCERFPIY” the “soluble on expression in E. coli” value was “soluble”.
In the case of “SMYMSNPTVRIAFVGKYLQDAGDTYFSVLQCFEHCQIALQVRLDILYVDSEELEGPNADEARKALLGCDGIFVPGGFGNRGVDGKCAAAQVARMNNIPYFGVCLGMQVAVIELSRNVVGWSDANSEEFNKESTHQVVRIMDCDRNKMGANMHLGACDVYIVEKSSIMAKIYSKSNIVVERHRHRYEVNTAYFEDLRKAGLCISAVTDPTFSSRCRVEAVENPSLRFFLAVQFHPEFISTPMDPAPTYLSFMAAAAKKDYVWPQKCSQRRLKQA”, the “soluble on expression in E. coli” value is reported as “soluble”.
